Data published in article PMC6735613.

Molecular target: recombinant human MMP-9 catalytic domain (residues 112-445) (human) (UniProt P14780)
Chain of UniProt P14780 (P14780 112-445): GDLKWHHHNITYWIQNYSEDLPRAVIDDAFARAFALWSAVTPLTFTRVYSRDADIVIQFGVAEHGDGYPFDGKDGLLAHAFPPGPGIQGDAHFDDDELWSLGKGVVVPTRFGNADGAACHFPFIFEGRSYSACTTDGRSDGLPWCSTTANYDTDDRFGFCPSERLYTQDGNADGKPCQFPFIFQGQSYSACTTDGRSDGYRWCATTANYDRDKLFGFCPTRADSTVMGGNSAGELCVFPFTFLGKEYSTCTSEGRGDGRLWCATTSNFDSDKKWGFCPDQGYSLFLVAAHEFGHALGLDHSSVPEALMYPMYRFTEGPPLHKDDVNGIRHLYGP

Kcat/Km of hydrolysis of the FRET-tagged peptide by the MMP-9 catalytic domain: 8650 M⁻¹ s⁻¹
B1: VCAN p.1335-1347 FRET substrate (5-FAM-…-QXL) (peptide)
peptide: GRMSDLSMIGHPI
modifications: 5-FAM on the N-terminus, QXL quencher on the C-terminus (5-FAM-GRMSDLSMIGHPI-QXL)
